# In US20100028347A1 (Eli Lilly, published 2010):
# Legend:
# [1] = target: T1, recombinant human VEGFR-1 Fc (human, UniProt P17948-2 27-687, limits assumed); experiment: ELISA: plate coated with HuVEGFR-1-Fc 100 ng/well, goat anti-human kappa-HRP, O.D. 450
# T1 construct: Bought from R&D Systems; also called rhuVEGFR-1 Fc; HuVEGFR-I-Fc; not shown: Fc part
# Experimental: TMB (3,3′,5,5′-tetra-methylbenzidine) substrate (Kierkegaard and Perry Lab, Inc., Gaithersburg, Md.) was used for color development following the manufacturer's instruction. The absorbance at 450 nanometers (nm) was read for quantification of binding activity of antibodies. For identification of the hybridomas producing anti-VEGFR-I antibodies, hybridoma supernatants were preincubated with VEGFR-I AP for 1 hour. […] PNPP (p-nitrophenyl phosphate) substrate for AP was used for color development following the manufacturer's instruction. The absorbance at 405 nm was read for quantification of VEGFR-I binding to VEGF or P1GF. Optical density (OD) values were read on a microtiter plate reader (Molecular Devices Corp., Sunnyvale, Calif.). ED50 and IC50 of the antibodies were analyzed using GraphPad Prism 3 software (GraphPad Software, Inc., San Diego, Calif.).
# HuVEGFR-I-Fc, mouse VEGFR-I-AP (hnClone Systems) or huVEGFR-2-AP (ImClone Systems) (100 ng/well) was coated on 96 strip-well plates and blocked with 5% milk/PBS. […]
# [2] = target: T2, human VEGFR-2 alkaline phosphatase (human, UniProt P35968 20-764); experiment: ELISA: antibody dilutions on plate coated with 1 µg/ml human VEGFR-2 alkaline phosphatase, HRP secondary, O.D. 450
# T2 construct: also called huVEGFR-2-AP; not shown: alkaline phosphatase fusion partner; not described
# T2 sequence (P35968 20-764): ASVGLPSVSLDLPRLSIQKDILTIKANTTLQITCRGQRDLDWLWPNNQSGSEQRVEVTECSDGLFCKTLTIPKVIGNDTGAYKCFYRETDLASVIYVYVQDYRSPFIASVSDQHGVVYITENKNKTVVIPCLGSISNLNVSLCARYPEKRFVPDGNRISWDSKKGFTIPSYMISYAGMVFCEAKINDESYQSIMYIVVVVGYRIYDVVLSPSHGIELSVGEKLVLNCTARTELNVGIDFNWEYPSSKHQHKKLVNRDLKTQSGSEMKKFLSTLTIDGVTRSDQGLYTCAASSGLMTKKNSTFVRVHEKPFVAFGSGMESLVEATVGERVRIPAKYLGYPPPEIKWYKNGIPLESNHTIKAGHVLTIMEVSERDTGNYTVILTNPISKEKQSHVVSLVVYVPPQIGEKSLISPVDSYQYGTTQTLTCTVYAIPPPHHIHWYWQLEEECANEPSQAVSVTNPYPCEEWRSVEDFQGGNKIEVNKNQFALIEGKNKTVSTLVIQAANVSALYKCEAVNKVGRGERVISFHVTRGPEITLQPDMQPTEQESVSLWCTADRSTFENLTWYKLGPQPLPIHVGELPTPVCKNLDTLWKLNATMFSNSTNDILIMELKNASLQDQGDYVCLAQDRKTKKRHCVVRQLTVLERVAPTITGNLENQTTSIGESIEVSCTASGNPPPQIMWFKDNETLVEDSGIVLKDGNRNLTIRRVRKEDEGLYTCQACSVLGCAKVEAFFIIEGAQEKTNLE
# Experimental: (§1) To determine the specificity of an anti-VEGFR-1 monoclonal antibody to human VEGFR-I, purified antibodies 18F1 were tested in an ELISA-based assay. One μg/ml of recombinant human VEGFR-I Fc, mouse VEGFR-I Fc, mouse VEGFR-2 Fc, or human VEGFR-2 alkaline phosphatase was coated with PBS in a 96-well microtiter plates at 4° C. over night. After wash, the receptor coated plates were blocked with PBS containing 5% Dry Milk and 0.05% Tween 20. Serial dilutions of primary antibody 18F1 to human VEGFR-I, MF1 to mouse VEGFR-I, IC1 1 to human VEGFR-2, or DClOl to mouse VEGFR-2 were incubated in the receptor-coated plates for 30 minutes. After wash secondary anti-primary HRP conjugate antibodies was incubated in the plates for 30 minutes. Plates were washed and incubated with the substrate TMB (3,3′,5,5′-tetra-methylbenzidine) for color development. The absorbance at 450 nm was read as OD values for quantification of binding activity of antibodies. Data were analyzed using a GraphPad Prism Software.
# [3] = target: T3, soluble recombinant human VEGFR-1 alkaline phosphatase (human, UniProt P17948 27-758); experiment: blocking ELISA: antibody preincubated with VEGFR-1 AP, binding to VEGF coated plate
# T3 construct: Made in house in stably transfected cells; also called rhuVEGFR-I AP; VEGFR-I AP; not shown: alkaline phosphatase fusion partner
# T3 sequence (P17948 27-758): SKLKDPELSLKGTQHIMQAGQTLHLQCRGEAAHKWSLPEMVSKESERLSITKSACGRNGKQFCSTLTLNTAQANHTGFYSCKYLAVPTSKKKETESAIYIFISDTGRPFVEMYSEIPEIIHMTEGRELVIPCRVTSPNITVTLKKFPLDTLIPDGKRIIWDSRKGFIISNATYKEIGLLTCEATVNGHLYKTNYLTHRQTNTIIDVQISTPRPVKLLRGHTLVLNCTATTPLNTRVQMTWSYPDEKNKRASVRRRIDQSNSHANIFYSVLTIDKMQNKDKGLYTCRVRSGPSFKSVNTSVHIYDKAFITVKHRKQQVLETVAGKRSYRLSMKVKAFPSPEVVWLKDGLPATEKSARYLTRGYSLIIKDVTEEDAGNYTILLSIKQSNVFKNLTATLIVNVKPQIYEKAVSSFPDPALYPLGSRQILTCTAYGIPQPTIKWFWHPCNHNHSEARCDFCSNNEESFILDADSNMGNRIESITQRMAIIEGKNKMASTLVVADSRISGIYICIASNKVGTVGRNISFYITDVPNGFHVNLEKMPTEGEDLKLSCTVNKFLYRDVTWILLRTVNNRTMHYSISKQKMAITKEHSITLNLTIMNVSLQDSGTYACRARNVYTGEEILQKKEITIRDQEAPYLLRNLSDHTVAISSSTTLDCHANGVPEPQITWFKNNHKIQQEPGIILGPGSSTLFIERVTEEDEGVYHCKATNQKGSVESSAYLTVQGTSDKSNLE
# Experimental: Specifically, hybridoma supernatants or purified antibodies were diluted in PBS with 5% FBS and 0.05% Tween 20 (ELISA buffer) and incubated in rhuVEGFR-I AP or AP coated 96-well microtiter plates for 30 minutes. Plates were washed with the ELISA buffer and incubated with goat anti-mouse IgG-horseradish peroxidase (HRP) conjugate (BioSource International, Camarillo, Calif.) for 30 minutes. TMB (3,3′,5,5′-tetra-methylbenzidine) substrate (Kierkegaard and Perry Lab, Inc., Gaithersburg, Md.) was used for color development following the manufacturer's instruction. The absorbance at 450 nanometers (nm) was read for quantification of binding activity of antibodies. For identification of the hybridomas producing anti-VEGFR-I antibodies, hybridoma supernatants were preincubated with VEGFR-I AP for 1 hour. The mixtures were incubated with the ELISA buffer in VEGF or P1GF coated 96-well microtiter plates for 1 hour. PNPP (p-nitrophenyl phosphate) substrate for AP was used for color development following the manufacturer's instruction. The absorbance at 405 nm was read for quantification of VEGFR-I binding to VEGF or P1GF. Optical density (OD) values were read on a microtiter plate reader (Molecular Devices Corp., Sunnyvale, Calif.). ED50 and IC50 of the antibodies were analyzed using GraphPad Prism 3 software (GraphPad Software, Inc., San Diego, Calif.).
# mouse VEGFR-2 Fc = target: T4, mouse VEGFR-2 Fc (mouse, UniProt P35918 20-762, limits assumed); experiment: ELISA: antibody dilutions on plate coated with 1 µg/ml mouse VEGFR-2 Fc, HRP secondary, O.D. 450
# T4 construct: not shown: Fc part; not described
# T4 sequence (P35918 20-762 limits assumed): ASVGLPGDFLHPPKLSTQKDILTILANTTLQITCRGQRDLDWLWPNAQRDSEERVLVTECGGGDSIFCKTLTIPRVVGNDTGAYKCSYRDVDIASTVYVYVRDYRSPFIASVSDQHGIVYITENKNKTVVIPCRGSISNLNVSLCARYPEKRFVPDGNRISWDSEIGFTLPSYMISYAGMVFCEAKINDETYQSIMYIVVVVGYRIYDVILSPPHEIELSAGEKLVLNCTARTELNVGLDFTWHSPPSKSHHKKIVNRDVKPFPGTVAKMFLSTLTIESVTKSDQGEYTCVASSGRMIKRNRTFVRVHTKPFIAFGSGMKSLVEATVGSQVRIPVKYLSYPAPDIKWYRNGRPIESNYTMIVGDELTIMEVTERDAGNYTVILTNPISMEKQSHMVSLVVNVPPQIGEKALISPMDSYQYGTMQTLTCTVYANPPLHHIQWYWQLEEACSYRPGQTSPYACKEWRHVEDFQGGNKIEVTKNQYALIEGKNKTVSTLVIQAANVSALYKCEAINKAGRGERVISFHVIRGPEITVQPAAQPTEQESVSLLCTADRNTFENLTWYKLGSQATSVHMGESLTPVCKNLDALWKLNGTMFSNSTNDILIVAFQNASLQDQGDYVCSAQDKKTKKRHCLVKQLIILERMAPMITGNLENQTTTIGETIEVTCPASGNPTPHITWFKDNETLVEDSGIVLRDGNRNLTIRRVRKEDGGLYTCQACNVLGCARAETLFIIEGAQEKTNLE
# Experimental: as §1
# [4] = target: native VEGFR-1 expressed on the cell surface (human, UniProt P17948 27-1338); experiment: cell-based or functional assay
# Chain of native VEGFR-1 expressed on the cell surface (P17948 27-1338): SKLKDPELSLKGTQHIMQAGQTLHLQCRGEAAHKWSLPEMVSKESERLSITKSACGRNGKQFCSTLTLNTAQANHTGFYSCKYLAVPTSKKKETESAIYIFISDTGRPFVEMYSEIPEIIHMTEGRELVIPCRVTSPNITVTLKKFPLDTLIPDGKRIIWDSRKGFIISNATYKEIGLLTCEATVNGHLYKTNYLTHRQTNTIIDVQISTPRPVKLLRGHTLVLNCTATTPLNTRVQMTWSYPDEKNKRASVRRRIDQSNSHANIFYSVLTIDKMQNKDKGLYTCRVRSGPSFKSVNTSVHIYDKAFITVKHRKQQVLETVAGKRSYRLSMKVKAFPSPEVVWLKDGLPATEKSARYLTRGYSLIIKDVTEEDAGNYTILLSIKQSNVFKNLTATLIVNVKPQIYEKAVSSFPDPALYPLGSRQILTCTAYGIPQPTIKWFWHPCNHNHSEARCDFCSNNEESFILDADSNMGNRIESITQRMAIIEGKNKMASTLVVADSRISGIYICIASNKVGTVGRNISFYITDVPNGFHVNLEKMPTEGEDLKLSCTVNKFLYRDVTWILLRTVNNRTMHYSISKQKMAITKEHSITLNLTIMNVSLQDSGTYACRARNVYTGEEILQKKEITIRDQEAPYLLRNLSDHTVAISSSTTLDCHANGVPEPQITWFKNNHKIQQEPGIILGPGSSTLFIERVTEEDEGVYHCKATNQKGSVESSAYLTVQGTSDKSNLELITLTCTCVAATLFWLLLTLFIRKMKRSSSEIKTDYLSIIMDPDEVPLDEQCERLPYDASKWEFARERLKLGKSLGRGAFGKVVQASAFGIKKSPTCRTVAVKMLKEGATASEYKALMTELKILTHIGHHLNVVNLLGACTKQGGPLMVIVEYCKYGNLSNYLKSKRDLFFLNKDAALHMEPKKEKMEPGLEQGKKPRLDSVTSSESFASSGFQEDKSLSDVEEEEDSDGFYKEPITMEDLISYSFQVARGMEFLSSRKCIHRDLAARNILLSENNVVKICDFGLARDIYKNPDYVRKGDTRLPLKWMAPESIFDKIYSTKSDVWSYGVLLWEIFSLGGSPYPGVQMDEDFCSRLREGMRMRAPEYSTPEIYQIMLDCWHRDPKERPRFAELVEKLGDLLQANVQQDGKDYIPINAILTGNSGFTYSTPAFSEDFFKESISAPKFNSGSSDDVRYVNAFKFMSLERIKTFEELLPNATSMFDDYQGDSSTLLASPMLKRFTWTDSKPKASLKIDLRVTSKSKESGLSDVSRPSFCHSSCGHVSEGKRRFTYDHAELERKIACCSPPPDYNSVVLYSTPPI
# T1 sequence (P17948 other isoform, or with tags, fused parts or gaps limits assumed): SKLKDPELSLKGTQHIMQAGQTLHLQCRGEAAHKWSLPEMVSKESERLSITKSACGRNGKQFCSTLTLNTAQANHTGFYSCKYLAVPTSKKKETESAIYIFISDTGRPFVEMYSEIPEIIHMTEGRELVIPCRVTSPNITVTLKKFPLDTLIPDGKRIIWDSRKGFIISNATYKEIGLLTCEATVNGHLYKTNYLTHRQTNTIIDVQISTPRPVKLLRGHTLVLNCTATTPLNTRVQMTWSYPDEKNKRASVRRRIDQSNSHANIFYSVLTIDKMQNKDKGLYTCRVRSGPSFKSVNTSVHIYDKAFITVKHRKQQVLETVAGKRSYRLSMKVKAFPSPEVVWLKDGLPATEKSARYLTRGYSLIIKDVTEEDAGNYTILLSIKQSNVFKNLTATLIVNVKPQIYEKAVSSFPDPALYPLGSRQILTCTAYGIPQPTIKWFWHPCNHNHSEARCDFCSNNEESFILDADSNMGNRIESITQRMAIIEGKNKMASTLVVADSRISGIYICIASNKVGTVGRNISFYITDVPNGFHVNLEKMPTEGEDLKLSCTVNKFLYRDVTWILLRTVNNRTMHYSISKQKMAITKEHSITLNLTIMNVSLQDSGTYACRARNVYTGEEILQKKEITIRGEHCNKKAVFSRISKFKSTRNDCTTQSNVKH
binder,measurement,setting,value
"anti-human VEGFR-1 antibody 18F1 (antibody, V domains shown, Fully human antibody (gamma heavy chain, kappa light chain) from hybridomas of KM transgenic mice, purified; The light chain entry runs a few residues into the kappa constant region; also called MC-18F1; IMC-18F1) VH: QAQVVESGGGVVQSGRSLRLSCAASGFAFSSYGMHWVRQAPGKGLEWVAVIWYDGSNKYYADSVRGRFTISRDNSENTLYLQMNSLRAEDTAVYYCARDHYGSGVHHYFYYGLDVWGQGTTVTVSS VL: not shown",EC50 (read off the curve),[1],~3 ng/mL
same,binding result,[2],no binding (tested: 1 µg/ml)
same,IC50,[3],0.84 nM
same,binding result,mouse VEGFR-2 Fc,no binding (tested: 1 µg/ml)
same,VEGF-A and P1GF stimulated proliferation of DU4475 breast carcinoma cells (estimated IC50),[4],30 to 50 nM
